One protein from doi:10.1101/2021.03.29.437564 (bioRxiv, 2021) can be followed below.

This series deals with the molecule itself. Description: direct infusion mass spectrometry.

B1: ParD antitoxin (PA0125) from Pseudomonas aeruginosa, wild type (natural protein)
chain: MSTVVSFRADDALVAALDELARATHRDRPYHLRQALAQYLERQQWQVAAIDEGLADANAGRLLEHIEIEKRWGLQ
As to B1, the “stoichiometry N” value turned out to be 2.

As usually defined, the stoichiometry N is a count of units in the complex or per binding partner.
